Assay results: patent publication US20090208416A1

Assays:
[1] = biological target: NKG2A on rhesus monkey (Macaca mulatta) NK cells (rhesus monkey (Macaca mulatta)) (UniProt Q9MZJ3); test: FACS rhesus whole blood, animal R00023
[2] = biological target: NKG2A on rhesus monkey (Macaca mulatta) NK cells (rhesus monkey (Macaca mulatta)) (UniProt Q9MZJ3); test: FACS rhesus whole blood NK cells, animal N0404
[3] = biological target: NKG2A on cynomolgus monkey NK cells (cynomolgus monkey) (UniProt Q68VD2); test: FACS cynomolgus whole blood, animal AK565
[4] = biological target: NKG2A on cynomolgus monkey NK cells (cynomolgus monkey) (UniProt Q68VD2); test: FACS cynomolgus whole blood, animal AL303
[5] = biological target: NKG2A on cynomolgus monkey NK cells (cynomolgus monkey) (UniProt Q68VD2); test: FACS cynomolgus whole blood, animal 1221
[6] = biological target: NKG2A on rhesus monkey (Macaca mulatta) NK cells (rhesus monkey (Macaca mulatta)) (UniProt Q9MZJ3); test: FACS rhesus whole blood NK cells, animal *8703
[7] = biological target: NKG2A on baboon NK cells (baboon); test: FACS baboon whole blood NK cells, animal V9926
[8] = biological target: NKG2A on rhesus monkey (Macaca mulatta) NK cells (rhesus monkey (Macaca mulatta)) (UniProt Q9MZJ3); test: FACS rhesus whole blood, animal R00077
[9] = biological target: NKG2A on cynomolgus monkey NK cells (cynomolgus monkey) (UniProt Q68VD2); test: FACS cynomolgus whole blood, animal T270
[10] = biological target: NKG2A on cynomolgus monkey NK cells (cynomolgus monkey) (UniProt Q68VD2); test: FACS cynomolgus whole blood, animal AL389
[11] = biological target: NKG2A on rhesus monkey (Macaca mulatta) NK cells (rhesus monkey (Macaca mulatta)) (UniProt Q9MZJ3); test: FACS rhesus whole blood, animal 34459
[12] = biological target: NKG2A on cynomolgus monkey NK cells (cynomolgus monkey) (UniProt Q68VD2); test: FACS cynomolgus whole blood, mean of 10 animals
[13] = biological target: NKG2A on rhesus monkey (Macaca mulatta) NK cells (rhesus monkey (Macaca mulatta)) (UniProt Q9MZJ3); test: FACS rhesus whole blood NK cells, animal PM021
[14] = biological target: NKG2A on rhesus monkey (Macaca mulatta) NK cells (rhesus monkey (Macaca mulatta)) (UniProt Q9MZJ3); test: FACS rhesus whole blood NK cells, mean of 9 animals
[15] = biological target: NKG2A on cynomolgus monkey NK cells (cynomolgus monkey) (UniProt Q68VD2); test: FACS cynomolgus whole blood, animal AK729
[16] = biological target: NKG2A on rhesus monkey (Macaca mulatta) NK cells (rhesus monkey (Macaca mulatta)) (UniProt Q9MZJ3); test: FACS rhesus whole blood, mean over animals
[17] = biological target: NKG2A on baboon NK cells (baboon); test: FACS baboon whole blood NK cells, animal O22V
[18] = biological target: NKG2A on baboon NK cells (baboon); test: FACS baboon whole blood NK cells, animal V989
[19] = biological target: NKG2A on baboon NK cells (baboon); test: FACS baboon whole blood NK cells, animal V861B
[20] = biological target: NKG2A on rhesus monkey (Macaca mulatta) NK cells (rhesus monkey (Macaca mulatta)) (UniProt Q9MZJ3); test: FACS rhesus whole blood, animal 31828
[21] = biological target: NKG2A on baboon NK cells (baboon); test: FACS baboon whole blood NK cells, animal V992
[22] = biological target: NKG2A on rhesus monkey (Macaca mulatta) NK cells (rhesus monkey (Macaca mulatta)) (UniProt Q9MZJ3); test: FACS rhesus whole blood, animal O967
[23] = biological target: NKG2A on baboon NK cells (baboon); test: FACS baboon whole blood NK cells, animal K938A
[24] = biological target: NKG2A on rhesus monkey (Macaca mulatta) NK cells (rhesus monkey (Macaca mulatta)) (UniProt Q9MZJ3); test: FACS rhesus whole blood NK cells, animal RU925
[25] = biological target: NKG2A on cynomolgus monkey NK cells (cynomolgus monkey) (UniProt Q68VD2); test: FACS cynomolgus whole blood, animal AL210
[26] = biological target: NKG2A on baboon NK cells (baboon); test: FACS baboon whole blood NK cells, animal V9912
[27] = biological target: NKG2A on cynomolgus monkey NK cells (cynomolgus monkey) (UniProt Q68VD2); test: FACS cynomolgus whole blood, animal T788

UniProt Q68VD2, sequence (Q68VD2 entry or part of it): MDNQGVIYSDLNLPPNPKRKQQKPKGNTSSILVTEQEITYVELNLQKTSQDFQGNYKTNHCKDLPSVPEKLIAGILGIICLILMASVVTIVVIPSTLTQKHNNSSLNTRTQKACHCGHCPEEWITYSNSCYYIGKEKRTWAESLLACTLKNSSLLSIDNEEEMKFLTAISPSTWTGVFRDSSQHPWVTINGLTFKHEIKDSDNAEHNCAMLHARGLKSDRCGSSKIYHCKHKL
UniProt Q9MZJ3, sequence (Q9MZJ3 whole entry): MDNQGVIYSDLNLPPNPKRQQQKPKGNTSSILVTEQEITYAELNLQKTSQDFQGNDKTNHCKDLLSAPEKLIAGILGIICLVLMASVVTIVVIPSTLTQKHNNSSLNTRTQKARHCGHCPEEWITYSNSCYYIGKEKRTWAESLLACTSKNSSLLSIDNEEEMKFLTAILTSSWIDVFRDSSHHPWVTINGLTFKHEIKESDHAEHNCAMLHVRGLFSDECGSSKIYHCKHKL

mouse IgG1 isotype control (antibody)
% NK+ [1]: 0.3%
MFI [1]: 0.5
% [2]: 0.6%
% NK+ [3]: 0.6%
MFI [3]: 0.66
% NK+ [4]: 0.13%
MFI [4]: 0.63
% NK+ [5]: 0.6%
MFI [5]: 0.53
% [6]: 0.4%
% [7]: 0.5%
tot. MFI [7]: 0.2
% NK+ [8]: 0.4%
MFI [8]: 0.41
% NK+ [9]: 0.2%
MFI [9]: 0.54
% NK+ [10]: 0.3%
MFI [10]: 0.63
% NK+ [11]: 1.4%
MFI [11]: 0.76
% NK+ (Mean) [12]: 0.3%
MFI (Mean) [12]: 0.6
% [13]: 0.8%
% (Mean) [14]: 0.7%
% NK+ [15]: 0.3%
MFI [15]: 0.6
% NK+ (Mean) [16]: 0.7%
MFI (Mean) [16]: 0.6
% [17]: 0.5%
tot. MFI [17]: 0.2
% [18]: 1.2%
tot. MFI [18]: 1.2
% [19]: 0.2%
tot. MFI [19]: 0.6
% NK+ [20]: 0.4%
MFI [20]: 0.65
% [21]: 0.6%
tot. MFI [21]: 0.3
% NK+ [22]: 0.5%
MFI [22]: 0.67
% [23]: 0.3%
tot. MFI [23]: 0.3
% [24]: 0.4%
% NK+ [25]: 0.4%
MFI [25]: 0.65
% [26]: 0.2%
tot. MFI [26]: 0.2
% NK+ [27]: 0.3%
MFI [27]: 0.5
